# Experimental data: article PMC7992120 (2018)
# B1: B1 bradykinin receptor (B1R) (protein)
# chain: MASSWPPLELQSSNQSQLFPQNATACDNAPEAWDLLHRVLPTFIISICFFGLLGNLFVLLVFLLPRRQLNVAEIYLANLAASDLVFVLGLPFWAENIWNQFNWPFGALLCRVINGVIKANLFISIFLVVAISQDRYRVLVHPMASRRQQRRRQARVTCVLIWVVGGLLSIPTFLLRSIQAVPDLNITACILLLPHEAWHFARIVELNILGFLLPLAAIVFFNYHILASLRTREEVSRTRCGGRKDSKTTALILTLVVAFLVCWAPYHFFAFLEFLFQVQAVRGCFWEDFIDLGLQLANFFAFTNSSLNPVIYVFVGRLFRTKVWELYKQCTPKSLAPISSSHRKEIFQLFWRN
# Biological target: linearized DAKD (N-methyl F6) (Homo sapiens, backbone amide N-methylation at F6 of peptide)
# Experiment: radioligand competition binding
binder,measurement,value
B1,Ki,2.03 µM
